Assay [1] deals with CD3 on T cells of human peripheral blood mononuclear cells (PBMCs) (human, UniProt P07766 23-207). The assay can be described thus: cell-based or functional assay.
The target in assay [2] is T1, CD3 (cluster of differentiation 3) (UniProt P07766 23-126).
T1 construct: also called CD3 antigen
Description: method not stated; monovalent KD used to calculate CD3 receptor occupancy; monovalent KD, used for CD3 receptor occupancy.

T1 sequence (P07766 23-126): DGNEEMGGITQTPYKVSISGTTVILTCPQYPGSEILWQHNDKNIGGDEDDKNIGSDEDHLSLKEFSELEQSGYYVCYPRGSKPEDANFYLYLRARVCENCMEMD
Sequence of CD3 on T cells of human peripheral blood mononuclear cells (PBMCs) (P07766 23-207): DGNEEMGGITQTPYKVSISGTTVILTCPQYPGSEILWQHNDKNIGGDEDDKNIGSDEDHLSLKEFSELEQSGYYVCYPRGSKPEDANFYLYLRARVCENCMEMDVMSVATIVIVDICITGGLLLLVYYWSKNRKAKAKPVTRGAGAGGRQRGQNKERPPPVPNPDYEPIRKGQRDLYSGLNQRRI

B1: cevostamab (bispecific antibody, human IgG1, kappa, N297G)
heavy 1: not shown
light 1: DIQMTQSPSSLSASVGDRVTITCKASQDVRNLVVWFQQKPGKAPKLLIYSGSYRYSGVPSRFSGSGSGTDFTLTISSLQPEDFATYYCQQHYSPPYTFGQGTKVEIKRTVAAPSVFIFPPSDEQLKSGTASVVCLLNNFYPREAKVQWKVDNALQSGNSQESVTEQDSKDSTYSLSSTLTLSKADYEKHKVYACEVTHQGLSSPVTKSFNRGEC
heavy 2: EVQLVQSGAEVKKPGASVKVSCKASGFTFTSYYIHWVRQAPGQGLEWIGWIYPENDNTKYNEKFKDRVTITADTSTSTAYLELSSLRSEDTAVYYCARDGYSRYYFDYWGQGTLVTVSSASTKGPSVFPLAPSSKSTSGGTAALGCLVKDYFPEPVTVSWNSGALTSGVHTFPAVLQSSGLYSLSSVVTVPSSSLGTQTYICNVNHKPSNTKVDKKVEPKSCDKTHTCPPCPAPELLGGPSVFLFPPKPKDTLMISRTPEVTCVVVDVSHEDPEVKFNWYVDGVEVHNAKTKPREEQYGSTYRVVSVLTVLHQDWLNGKEYKCKVSNKALPAPIEKTISKAKGQPREPQVYTLPPSREEMTKNQVSLSCAVKGFYPSDIAVEWESNGQPENNYKTTPPVLDSDGSFFLVSKLTVDKSRWQQGNVFSCSVMHEALHNHYTQKSLSLSPGK
light 2: not shown
notes: Humanized full-length non-glycosylated IgG1 kappa, knobs-into-holes; also called BFCR4350A; RO7187797
As for B1, the “50% effective concentration (EC50) for T-cell activation in the in vitro human PBMC: MOLP-2 co-culture” value in assay [1] was 0.0588 µg/mL. Also, the dissociation constant (Kd) in assay [2] was 2.6 nM.

Source of the values: patent publication US20260001954A1 (Genentech, published 2026).
